Test results: patent US20210079092A1 (UNIVERSITY OF TOKYO, published 2021)

T1: human CADM1 v9 fragment (human, UniProt Q9BY67-4 45-371)
T1 construct: Extracellular region of CADM1 v8/9 released from cells by protease cleavage; It was tested in, or purified from, the culture supernatant of SBC5 cells stably expressing CADM1 v8/9 (approximately 80 kDa, O-glycosylated region); also called v9 fragment of CADM1; CADM1 v8/9 fragment
T1 sequence: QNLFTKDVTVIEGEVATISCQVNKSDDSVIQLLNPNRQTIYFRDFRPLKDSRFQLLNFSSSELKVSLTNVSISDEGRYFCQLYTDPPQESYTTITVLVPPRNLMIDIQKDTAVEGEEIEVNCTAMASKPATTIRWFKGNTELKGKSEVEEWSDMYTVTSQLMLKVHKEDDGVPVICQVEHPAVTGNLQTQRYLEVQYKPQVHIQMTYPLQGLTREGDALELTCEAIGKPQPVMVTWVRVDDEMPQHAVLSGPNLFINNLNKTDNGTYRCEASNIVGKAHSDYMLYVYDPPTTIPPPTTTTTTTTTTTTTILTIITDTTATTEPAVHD

T2: peptide CDTTATTEPAVHD (entire-length peptide of 13 amino acids used as an immunogen)
T2 construct: Synthetic peptide with an added N-terminal cysteine; It was KLH-coupled only for immunization
T2 peptide: CDTTATTEPAVHD

T3: SEQ ID NO 30
T3 construct: Short fragment obtained by dividing the 13-aa immunogen peptide; also called divided peptide consisting of 7 amino acids
T3 peptide: TEPAVHD

T4: SEQ ID NO 29
T4 construct: Short fragment obtained by dividing the 13-aa immunogen peptide; also called divided peptide consisting of 7 amino acids
T4 peptide: TATTEPA

T5: SEQ ID NO 28
T5 construct: Short fragment obtained by dividing the 13-aa immunogen peptide; also called divided peptide consisting of 7 amino acids
T5 peptide: CDTTATT


Key:
human CADM1 v9 fragment [1] = target: T1, human CADM1 v9 fragment; assay: sandwich ELISA on culture supernatant, capture E9935, detection HRP-labeled F1222
Method: (§1) PBS-T (137 mM NaCl, 8.1 mM […], 2.68 mM KCl, 1.47 mM KH₂PO₄, and 0.05% Tween 20) was used for washing twice, and […] of 1%/BSA (Wako Pure Chemical Industries, Ltd.)/PBS-T was added. The plate was left at rest at room temperature for 1 hour for blocking. The plate was washed with PBS-T twice, and thereafter, a standard for a calibration curve, a culture supernatant, and serum or pleural effusion were added, followed by incubation at room temperature for 1 hour. The plate was washed with PBS-T four times, and […] of the detection antibody diluted in 1% BSA/PBS-T to a concentration of 100 ng/mL was added, followed by incubation at room temperature for 1 hour. The plate was washed with PBS-T six times, and […] of TMB Soluble Reagent (ScyTek Laboratories) was then added for color development. […] of TMB Stop Buffer (ScyTek Laboratories) was further added to terminate the reaction. Finally, using an Ensight plate reader (PerkinElmer), the wavelength at 450 nm was measured.
(§2) (A) The total amount of CADM1 fragment or other cells and (B) the amount of the CADM1 v9 fragment, secreted in the culture supernatant of SCLC were measured according to a sandwich ELISA method. As a capture antibody, the anti-CADM1 mouse monoclonal antibody E9935 was used. As detection antibodies, the anti-CADM1 antibody E9919 and the anti-CADM1 v8/9 antibody F1222, which were HRP-labeled, were used. […]

[2] = target: T2, peptide CDTTATTEPAVHD (entire-length …); assay: ELISA on coated peptide, HRP-labeled antibody
Method: (§3) The anti-CADM1 v9 antibodies F1222 and F1315 were previously HRP-labeled using Peroxidase Labeling Kit-NH₂ (DOJINDO LABORATORIES), and epitopes were narrowed down according to an ELISA method. Peptide synthesis was outsourced to Toray Research Center, Inc. The peptide was dissolved in 10% DMSO/PBS to prepare a peptide solution having a concentration of 1 mg/mL. […] of the peptide diluted in a carbonate buffer to a concentration of […] was added to Nunc MaxiSorp 96-well plate (Thermo Fisher Scientific) and was left at rest at 4° C. overnight for immobilization. The plate was washed with PBS-T twice, and […] of 1%/BSA/PBS-T was added. The plate was left at rest at room temperature for 1 hour for blocking. The plate was washed with PBS-T twice, and […] of the HRP-labeled antibody diluted in 1% BSA/PBS-T to a concentration of 100 ng/mL was added, followed by incubation at room temperature for 1 hour. The plate was washed with PBS-T four times, and […] of TMB Soluble Reagent (ScyTek Laboratories) was then added for color development. […] of TMB Stop Buffer (ScyTek Laboratories) was further added to terminate the reaction. Finally, using the Ensight plate reader (PerkinElmer), the wavelength at 450 nm was measured.
(§4) In order to narrow down the epitope of the anti-CADM1 v9 antibody, a peptide consisting of 13 amino acids in entire length (SEQ ID NO: 2) used as an immunogen, and peptides obtained by dividing the aforementioned peptide into short fragments (SEQ ID NOS: 28 to 30) were synthesized, and the reactivity of these peptides to the anti-CADM1 v9 antibody was studied using an ELISA method.

SEQ ID NO 30 = target: T3, SEQ ID NO 30; assay: ELISA on coated peptide, HRP-labeled antibody
Method: as §3, §4

SEQ ID NO 29 = target: T4, SEQ ID NO 29; assay: ELISA on coated peptide, HRP-labeled antibody
Method: as §3, §4

SEQ ID NO 28 = target: T5, SEQ ID NO 28; assay: ELISA on coated peptide, HRP-labeled antibody
Method: as §3, §4

human CADM1 v9 fragment [3] = target: T1, human CADM1 v9 fragment; assay: sandwich ELISA on culture supernatant, E9935 as capture antibody, detection HRP-labeled F1222
Method: as §1, §2

Binder	binding result (human CADM1 v9 fragment [1])	binding result [2]	binding result (SEQ ID NO 30)	binding result (SEQ ID NO 29)	binding result (SEQ ID NO 28)	binding result (human CADM1 v9 fragment [3])
anti-CADM1 v9 antibody F1222 (antibody, V domains shown, Mouse monoclonal antibody from a hybridoma (Cadm1-/- Balb/c mice); It was HRP-labeled (Peroxidase Labeling Kit-NH2) in the sandwich and peptide ELISAs; also called anti-CADM1 v8/9 antibody F1222) VH: EVQLVESGGGLVQPKGSLKLSCAASGFTFNTYAMNWVRQAPGKGLEWVARIRSKSNYYTTYYADSVKDRFTISRDDSQSMLYLQMNNLKTEDTAMYYCIRQRHGNFYWGQGTLVTVSA VL: DIVLTQSPASLAVSLGQRATISCKASQSVDYDGYSYMNWYQQKPGQPPKLLIYAASNLESGIPARFSGSGSGTDFTLNIHPVEEEDAATYYCQQSNEDPPTFGAGTKLELK	binds	binds	no binding (tested: 100 ng/mL antibody)	no binding (tested: 100 ng/mL antibody)	no binding (tested: 100 ng/mL antibody)	
anti-CADM1 mouse monoclonal antibody E9935 (antibody, V domains shown, Mouse monoclonal antibody from a hybridoma; It served as the capture antibody in the sandwich ELISA and, crosslinked to Protein A Sepharose, for purification; also called anti-CADM1 antibody E9935) VH: QVQLQQSGTELAKPGASVKMSCKASGYTFTHYWMHWVKQRPGQGLEWIGFINPGTGYTEYNQKFKDKATLTADKSSSTAYIQLSSLTSEDSAVYYCSRASYYSGSSHAWFGFWGQGTLVTVSA VL: DIVLTQSPASLAVSLGQRATISCKASQSVNYDGDNYMNWYQQKPGQPPKLLIYAASNLESGIPARFSGSGSGTDFTLNIHPVEEEDAATYYCQQSYEDPWTFGGGTKLEIK						binds
